Legend:
[1] = biological target: T1, h-β2 appendage (residues 700–937), 6xHis (human, UniProt P63010 700-937); assay: ITC
T1 sequence (looked up): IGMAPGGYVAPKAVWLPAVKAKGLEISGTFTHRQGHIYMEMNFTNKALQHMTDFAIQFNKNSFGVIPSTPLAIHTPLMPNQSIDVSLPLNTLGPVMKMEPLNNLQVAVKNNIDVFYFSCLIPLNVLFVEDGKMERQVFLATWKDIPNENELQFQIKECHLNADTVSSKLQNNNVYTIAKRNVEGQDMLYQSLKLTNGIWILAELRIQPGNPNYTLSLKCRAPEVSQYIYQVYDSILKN

[2] = biological target: T2, h-γ appendage (residues 704–822), 6xHis (human, UniProt O43747 704-822); assay: ITC
T2 sequence (looked up): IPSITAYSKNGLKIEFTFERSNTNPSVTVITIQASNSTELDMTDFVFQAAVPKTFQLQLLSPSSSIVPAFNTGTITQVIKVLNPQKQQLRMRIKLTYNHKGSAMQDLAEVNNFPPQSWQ

B1: epsinR N3 construct (291–426), GST cleaved (domain or fragment, human, UniProt Q14677 291-426, looked up)
chain: AHYTGDKASPDQNASTHTPQSSVKTSVPSSKSSGDLVDLFDGTSQSTGGSADLFGGFADFGSAAASGSFPSQVTATSGNGDFGDWSAFNQAPSGPVASSGEFFGSASQPAVELVSGSQSALGPPPAASNSSDLFDL
[1]
  stoichiometry N: 2 appendage domains per epsinR N3
[2]
  stoichiometry N: 2 appendage domains per epsinR N3

— PMC2172650 (The Journal of Cell Biology, 2003)
